Assay results as given in article PMC10303109.

Molecular target: SARS-CoV-2 spike RBD wild type (SARS-CoV-2 (Wuhan strain)) (UniProt P0DTC2)
Test: filter binding

Row | Sequence | Kd (11 Nap-dU (5-[N-(1-naphthylmethyl)carboxamide]-2'-deoxyuridine) in place of dT) | Kd (11 Nap-dU in place of dT)
1 | TATCGAGCGTCCTGCCTTTGCGGAGGUGAACCUUACGUUCAACUGGAUCGUGUGUAGGUACACCGACAGCCACCCAGAAA [AM032-0] | 0.78 nM | 
2 | CTGUCGGUAAGGGAGCUAGUGUAUGCCCCUGAGUUGGGGAUAUCACCGACAG [AM047-0] |  | 0.02 nM
